# In the supplement of paper PMC10724198:
# ± gives the standard deviation of the averaged measurements.
# Tested on: Saccharomyces cerevisiae
# Assay: protein stability index of tFT-peptide fusion (C-terminal peptide) (PSI (0-1 scale)); higher = more stable (slower turnover)
# Settings: genetic background: wild type; temperature: 30 C
# 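Further: PSI is a weighted mean of sequencing reads over stability bins, variants kept only with over 10 reads, mCherry proximal and sfGFP distal, peptide attached via GGGS linker.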
row,Sequence,protein stability index
1,GGSCGFGQGAGG,0.685 ± 0.025
2,TSSTEKTKTKRP,0.809 ± 0.17
3,PPPPPASTPASS,0.6808 ± 0.0013
4,YNVRNVSVHQLG,0.644 ± 0.015
5,GGSWGGGGVFVR,0.637 ± 0.083
6,QYMDQIKGRSGT,0.723 ± 0.0079
7,VFVGCRECKLCA,0.57592 ± 7.6e-05
8,LYIYSPFGLFAF,0.562 ± 0.0082
9,VRKKRKKELAKV,0.794 ± 0.086
10,SACCNFAPAFGQ,0.662 ± 0.019
11,SRVVAGLWRGAV,0.671 ± 0.18
12,KKREEKKEKRKR,0.643 ± 0.054
13,PCAFSLPPLQIP,0.7 ± 0.012
14,GGAAGGGRGGDG,0.62 ± 0.069
15,TLSTSPPPCHPL,0.667 ± 0.06
16,YSLPPAPQPLPP,0.772 ± 0.092
17,AVWLGGGGRFVG,0.78 ± 0.034
18,RATRLFPPPHFS,0.7 ± 0.037
19,LPRPPPTSSTPL,0.784 ± 0.16
20,RALLGSVVCSYG,0.6268 ± 0.0016
21,PLLRLVPVPSVI,0.5537 ± 0.0025
22,HTRLCFSPPRGI,0.686 ± 0.02
23,SPPPPPPSPPLH,0.727 ± 0.044
24,KKKKKQIKKQKK,0.586 ± 0.02
25,TGNQCGNGYSWR,0.696 ± 0.013
26,GCRGRCVMPVCG,0.634 ± 0.051

row,Sequence,protein stability index
1,FSNLVSAHFGLL,0.666 ± 0.042
2,HSWFSWSVVSEL,0.7308 ± 0.0018
3,SPADALPLPGCG,0.707 ± 0.05
4,VGGGCGVRVVVV,0.684 ± 0.05
5,AGLPEKARDRGS,0.638 ± 0.045
6,CGCSLPGFCFLA,0.53 ± 0.022
7,PPPSPLLLFPPL,0.645 ± 0.11
8,RLRFIGDCKSST,0.637 ± 0.031
9,VSRLTVIPAVQT,0.652 ± 0.027
10,YFWFSRGLSVFF,0.666 ± 0.0073
11,LLLQLSPLLTSL,0.646 ± 0.019
12,YPGSCFLDTGIW,0.6666 ± 0.0062
13,LPPLPPPPLLFP,0.674 ± 0.002
14,LIQHVTKLTPFF,0.694 ± 0.012
15,VLSCCTAVAYPF,0.593 ± 0.028
16,ERRGGRKGRGRE,0.662 ± 0.02
17,FLCSRYRGYMPT,0.632 ± 0.086
18,PVSCTLTLPPPH,0.65 ± 0.0036
19,VCLVCLFNACRF,0.608 ± 0.032
20,EIYARVQERLKI,0.617 ± 0.016
21,KKGSSKKKKPVE,0.6581 ± 0.0062
22,IHQVGCFHIPFG,0.666 ± 0.0097
23,FVSSSVFFVFSF,0.627 ± 0.058
24,PLLLPPLPRTPF,0.622 ± 0.0066
25,DFKHKYREKKKF,0.615 ± 0.062
26,KKKKKKQKKKIQ,0.741 ± 0.05

row,Sequence,protein stability index
1,ADMPPEFKPALS,0.637 ± 0.073
2,PLTFSFPVRVCD,0.537 ± 0.028
3,KETQKKKQDKKK,0.703 ± 0.0091
4,NDKPKKKYRKTR,0.64 ± 0.018
5,NSLGRRRSYPTL,0.839 ± 0.039
6,KRGIHKLVNEVG,0.683 ± 0.011
7,VTCALGIGGVGV,0.716 ± 0.05
8,SHWCLQTQAACK,0.65529 ± 0.00032
9,GVFGGAGCGVVL,0.724 ± 0.022
10,STPSMGSMTRLE,0.731 ± 0.041
11,SFLPDCLSLFLF,0.612 ± 0.058
12,ALATPLWDLMPP,0.606 ± 0.072
13,WLPPPPPPSPSS,0.767 ± 0.0026
14,RKTKKEEKTKRN,0.719 ± 0.2
15,RLRVIMVSVGGV,0.544 ± 0.0079
16,PPRAPPPPVPPL,0.598 ± 0.03
17,HPPSPPPPPSRL,0.713 ± 0.071
18,HPSSLRLSSSAF,0.697 ± 0.014
19,RWFGRFSFCLFF,0.5 ± 0.055
20,PPRPPSPLPLPP,0.687 ± 0.016
21,QTQNEENKKQKY,0.612 ± 0.13
22,PIATTSVDAGRS,0.634 ± 0.019
23,EATGSLISFCGW,0.665 ± 0.068
24,CVREDSRPFPAS,0.76 ± 0.044
25,ARRPGGGRSGGN,0.672 ± 0.039
26,GCRSFRNYKIGV,0.641 ± 0.018

row,Sequence,protein stability index
1,TEVRHMKGVAWW,0.6919 ± 0.0044
2,KQHTEQIDRRTG,0.6635 ± 0.0036
3,FVGGNEGSYWAS,0.751 ± 0.035
4,MGDGRRMDGVWG,0.6 ± 0.03
5,WCRVCNRLVVGV,0.5258 ± 0.0015
6,PPPPPPAASSSP,0.692 ± 0.047
7,LVFVPTLFPPPG,0.662 ± 0.053
8,PPRPPHPAPSPH,0.638 ± 0.024
9,PPAAAPPSPPPL,0.663 ± 0.0036
10,RGWVAGGSSAWS,0.673 ± 0.054
11,RIALWPTSMPAL,0.684 ± 0.041
12,GGRGWGGEMGGR,0.7156 ± 0.0052
13,NPFLHQSMGQLT,0.724 ± 0.078
14,RYSPFSFLASLP,0.732 ± 0.049
15,GILVDGRGRGCR,0.735 ± 0.039
16,VTHDSACSSRLA,0.683 ± 0.019
17,PISAGGGVVWVE,0.6491 ± 0.0047
18,HFPPPPRPSAPP,0.681 ± 0.036
19,KKKKKNKKKTIK,0.6886 ± 0.0046
20,WLTNKYDNIVKD,0.7634 ± 0.0068
21,GGGGGGVECRVG,0.671 ± 0.086
22,TGISPWPPSERR,0.808 ± 0.19
23,KIDKNILTNKEN,0.673 ± 0.056
24,HFKHLALVQQFP,0.69 ± 0.048
25,LRKCVKAECKSQ,0.684 ± 0.037
26,NHPCPFSELPQL,0.758 ± 0.11

row,Sequence,protein stability index
1,SLPPLPSPPCPP,0.712 ± 0.044
2,RGVGLGRWGPVV,0.652 ± 0.0081
3,PSPGPPLPPPLF,0.7625 ± 0.0075
4,IRKEKREKKSSH,0.702 ± 0.069
5,NFEVHRCGISLR,0.681 ± 0.0075
6,VNKNKKNVEYIK,0.657 ± 0.013
7,CLRDTLTCLFFF,0.5953 ± 0.0044
8,GSLLSNVPPRIR,0.706 ± 0.013
9,LGWGGGGPLSGG,0.7197 ± 0.0054
10,HRKPHRSKTPIH,0.693 ± 0.032
11,FTARAGRLQSVF,0.627 ± 0.0097
12,PPALRSPCPSHP,0.747 ± 0.14
13,YTSPRSTGPSVG,0.732 ± 0.012
14,CVSSALRVPGRE,0.699 ± 0.027
15,PPLRPPPLHPPR,0.705 ± 0.036
16,TWIPSFACQSLQ,0.70274 ± 0.00029
17,FVPPPVVPPFPL,0.716 ± 0.017
18,PLPHPPRPLPPH,0.717 ± 0.015
19,KGKTARDVLLLV,0.58 ± 0.013
20,CPLLSPTPPLRP,0.703 ± 0.019
21,LSLHCIYQQIFR,0.822 ± 0.12
22,QMKDGKTQKWQE,0.569 ± 0.048
23,KIDKKSKKKKEI,0.684 ± 0.017
24,PAPPPPPTDTPP,0.623 ± 0.0095
25,PSLHRPPLLPCP,0.674 ± 0.013
26,PPLSPPPLPAAP,0.724 ± 0.03

row,Sequence,protein stability index
1,SWPPCPSGRGRG,0.727 ± 0.029
2,HVRLSCTRGMVI,0.695 ± 0.015
3,VVVVCSWPVSLL,0.5744 ± 0.0042
4,PQPLESTVDHRL,0.7192 ± 0.0062
5,PLPFPPPLPSHR,0.767 ± 0.11
6,ELASLSPCCMGM,0.762 ± 0.15
7,PPRLPLSHPPEP,0.634 ± 0.022
8,CVGTLSPKTVRT,0.697 ± 0.024
9,RVLPPAPLQALQ,0.645 ± 0.018
10,KNNKSERIEKEQ,0.701 ± 0.08
11,LPRAAISRKFAT,0.63 ± 0.037
12,LAIIKLRGDLSY,0.6646 ± 0.0019
13,SPTGTPIIPSYP,0.684 ± 0.0098
14,TFPGRLPLTRLP,0.726 ± 0.038
15,GSEISTRGVGRR,0.6647 ± 0.0013
16,KTPHSTARNFNR,0.736 ± 0.092
17,TRLVYFYLGRDI,0.656 ± 0.054
18,RSSLGSFSELSQ,0.777 ± 0.031
19,LFPLAPRRLAPP,0.628 ± 0.069
20,GSRGGPGGEAAG,0.652 ± 0.019
21,VGDGAVGKTRGD,0.681 ± 0.039
22,GGLAWSMSGCVG,0.691 ± 0.076
23,SGRGGTGIGERV,0.6694 ± 0.00092
24,PARCRPSSPAPL,0.726 ± 0.016
25,PPPPPRPPRLLS,0.651 ± 0.1
26,ETRKINELRAKK,0.642 ± 0.087

row,Sequence,protein stability index
1,NTTQKKKGGRKA,0.747 ± 0.15
2,GGGTVGCVVALA,0.64 ± 0.017
3,PPPPPPPPPSFP,0.65 ± 0.0086
4,LFGSMGVLGIGR,0.672 ± 0.061
5,RSTSGACSRRWL,0.624 ± 0.025
6,RGGPTRVSLPPR,0.654 ± 0.016
7,PREYGSYHNYHS,0.592 ± 0.047
8,RRLAGRPVTRGA,0.667 ± 0.015
9,QTWVQIGIRITL,0.44 ± 0.087
10,KKDRRGGGPGGG,0.691 ± 0.03
11,YNRQVDFECHKF,0.698 ± 0.044
12,FSILYLLPPGPL,0.663 ± 0.092
13,SYLPLGTVLMLG,0.681 ± 0.032
14,PPPMSVAVFPFG,0.678 ± 0.03
15,KFKREKKKINKR,0.6938 ± 0.0023
16,WIDSGCALVEIA,0.701 ± 0.045
17,PAPLPADTFVEC,0.668 ± 0.065
18,CGEGGVCRLVFS,0.682 ± 0.0074
19,RWPQNRGRVSKP,0.747 ± 0.017
20,SHPPATMRAASV,0.6646 ± 0.0043
21,CGWSQLCRDSES,0.675 ± 0.042
22,DKDWDHGSLCIP,0.692 ± 0.074
23,GQMSKMRDRLIA,0.652 ± 0.0094
24,SMCASRMPVCFS,0.767 ± 0.18
25,NWKNENGRELEE,0.7 ± 0.029
26,GSQVGVRWGRFG,0.675 ± 0.0079

row,Sequence,protein stability index
1,SRGLPAPASRYC,0.713 ± 0.015
2,YLPRHPLPPFPV,0.681 ± 0.14
3,LDAVRCRDKAVV,0.6537 ± 0.0036
4,GGPGVKRPAMDP,0.688 ± 0.0071
5,CRSNISDLFSSV,0.7793 ± 0.0063
6,SLPPPPARAAIL,0.668 ± 0.07
7,RTLNPHLYRLRH,0.682 ± 0.024
8,LRTVSPPSASPP,0.689 ± 0.014
9,KKKKKQKKKKRK,0.682 ± 0.013
10,PSTRPMLRSQQK,0.66 ± 0.013
11,RGDVGVGHWVGG,0.708 ± 0.0093
12,GLGVCSPRFLVL,0.763 ± 0.15
13,GLPFPPGPIFVS,0.743 ± 0.19
14,RVCDSAPKRNRH,0.676 ± 0.018
15,GQPGDCWRVCPR,0.6851 ± 0.0027
16,LALGICRLSSAG,0.7599 ± 0.005
17,SDKVKRYISTTL,0.637 ± 0.023
18,SRSPLCRCAPSF,0.6534 ± 0.0043
19,YLSGHLGCRVRV,0.651 ± 0.067
20,VSWVMSEMRKGE,0.697 ± 0.031
